We go through two molecules from doi:10.1101/2022.07.21.500988, “Molecular insight into the enzymatic macrocyclization of multiply backbone N-methylated peptides” (bioRxiv, 2022).

The assay concerns the target T1, OphP(S580A) (Omphalotus olearius, S580A).
T1 construct: also called OphP variant S580A
T1 chain: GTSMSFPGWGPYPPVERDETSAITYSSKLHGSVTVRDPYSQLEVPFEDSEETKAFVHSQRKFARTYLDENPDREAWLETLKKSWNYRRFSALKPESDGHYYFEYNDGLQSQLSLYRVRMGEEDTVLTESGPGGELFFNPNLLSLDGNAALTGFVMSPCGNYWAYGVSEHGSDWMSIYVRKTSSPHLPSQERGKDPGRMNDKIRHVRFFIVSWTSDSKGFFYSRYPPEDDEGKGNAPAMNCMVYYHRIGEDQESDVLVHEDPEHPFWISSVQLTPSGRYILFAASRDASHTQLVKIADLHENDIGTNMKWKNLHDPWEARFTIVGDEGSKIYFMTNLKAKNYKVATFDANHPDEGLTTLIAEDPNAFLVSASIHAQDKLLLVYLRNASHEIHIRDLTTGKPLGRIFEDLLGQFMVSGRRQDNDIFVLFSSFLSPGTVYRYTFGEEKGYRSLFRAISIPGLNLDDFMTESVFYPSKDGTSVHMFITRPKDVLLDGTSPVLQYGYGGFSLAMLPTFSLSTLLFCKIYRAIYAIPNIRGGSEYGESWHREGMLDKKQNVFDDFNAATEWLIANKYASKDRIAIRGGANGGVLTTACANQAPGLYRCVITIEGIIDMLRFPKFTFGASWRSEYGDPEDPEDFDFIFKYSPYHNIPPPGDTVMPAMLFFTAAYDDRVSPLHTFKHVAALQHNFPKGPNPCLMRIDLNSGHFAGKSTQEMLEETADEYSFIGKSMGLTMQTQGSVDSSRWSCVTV
Kind of assay: crystal structure. Conditions: both partners purified.

With GFPWVIVVGVIGVIG [Oph-15mer], the binding result is listed as “binds”.

With WVIVVGVIGVIGSVMSTE (also called 18mer^CF) [Oph-18mer^NL], the binding result is given as “binds”.
